Test results: patent US9724381B2 (THE ADMINISTRATORS OF THE TULANE EDUCATIONAL FUND, priority 2009, dated 2017)
Where no end group is shown, it is not given here. [ ]: non-standard residue; d: D form. The star is where a group is joined. Desaminotyrosyl = O=C(CCc1ccc(O)cc1)*

Target: Ghrelin/GHRP/GHS Receptor (Rattus norvegicus, UniProt O08725)
Assay: In vitro GH release from isolated pituitary glands, pituitary incubation method
Format: cell-based
Conditions: Table 1
Experimental: Hormonal activities were obtained from in vitro studies using pituitaries of 20 day old CD-1 strain Sprague Dawley female rats. Two pituitaries were incubated for a total of 4-6 hours. Medium was removed each hour for RIA of GH level and fresh medium was added again. After two one hour preincubation periods (P1-P2), the vehicle/peptides were added to two one hour incubations (I3-I4). Peptide activity was calculated as the change in the hormonal level (delta) between I3+I4 and P2. For antagonist activity, the incubation was continued for 2 additional hours (I5-I6) where both the peptide and a stimulator of GH secretion was added and the antagonist activity was calculated as the change in the hormonal level (delta) between I5+I6 and P2. The peptides were assayed in triplicate and the hormone was assayed in duplicate. Each value recorded represents the mean of 6. The GH RIA reagents were distributed by the NIH. Control data was collected from isolated pituitary glands treated with only the corresponding vehicle in the absence of peptide or stimulator. Control stimulated data was collected from isolated pituitary glands treated with stimulator alone in the absence of any peptide.

[1] = peptide antagonist 0.3 μg/ml + stimulator His-DTrp-Ala-Trp-DPhe-Lys-NH2 10 ng/ml
[2] = peptide antagonist 1 μg/ml + stimulator His-DTrp-Ala-Trp-DPhe-Lys-NH2 10 ng/ml
[3] = peptide antagonist 3 μg/ml + stimulator His-DTrp-Ala-Trp-DPhe-Lys-NH2 10 ng/ml
[4] = peptide antagonist 10 μg/ml + stimulator His-DTrp-Ala-Trp-DPhe-Lys-NH2 10 ng/ml
[5] = peptide antagonist 30 μg/ml + stimulator His-DTrp-Ala-Trp-DPhe-Lys-NH2 10 ng/ml

Chain of Ghrelin/GHRP/GHS Receptor (O08725 whole entry): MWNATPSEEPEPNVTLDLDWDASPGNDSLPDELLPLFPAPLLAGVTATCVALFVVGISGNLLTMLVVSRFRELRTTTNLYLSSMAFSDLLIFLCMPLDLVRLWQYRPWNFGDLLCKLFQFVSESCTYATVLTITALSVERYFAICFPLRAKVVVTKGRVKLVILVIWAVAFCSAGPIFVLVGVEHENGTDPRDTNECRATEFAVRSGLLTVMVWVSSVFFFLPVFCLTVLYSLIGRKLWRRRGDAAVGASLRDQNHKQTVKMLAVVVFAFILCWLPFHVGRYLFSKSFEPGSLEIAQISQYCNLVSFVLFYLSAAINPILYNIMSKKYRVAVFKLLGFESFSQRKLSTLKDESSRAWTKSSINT

| Change in stimulated GH release versus preincubation (delta) [1] | Change in stimulated GH release versus preincubation (delta) [2] | Change in stimulated GH release versus preincubation (delta) [3] | Substance | Change in stimulated GH release versus preincubation (delta) [4] | Change in stimulated GH release versus preincubation (delta) [5] | Change in stimulated GH release versus preincubation (delta) (peptide antagonist 0.1 μg/ml + stimulator His-DTrp-Ala-Trp-DPhe-Lys-NH2 10 ng/ml) | Change in stimulated GH release versus preincubation (delta) (peptide antagonist 100 μg/ml + stimulator His-DTrp-Ala-Trp-DPhe-Lys-NH2 10 ng/ml) |
| --- | --- | --- | --- | --- | --- | --- | --- |
| 1542 ± 523 ng/mL | 323 ± 69 ng/mL | 445 ± 188 ng/mL | His-DTrp-DTrp-Phe-Met-NH2 (H[dW][dW]FM-NH2; N-terminus assumed; SMILES CSCC[C@H](NC(=O)[C@H](Cc1ccccc1)NC(=O)[C@@H](Cc1c[nH]c2ccccc12)NC(=O)[C@@H](Cc1c[nH]c2ccccc12)NC(=O)[C@@H](N)Cc1c[nH]cn1)C(N)=O) | 287 ± 68 ng/mL | -319 ± 95 ng/mL | – | – |
| – | – | 341 ± 222 ng/mL | His-DTrp-DArg-Trp-DPhe-NH2 (chain 1 H[dW][dR]W[dF]-NH2; chain 2 H[dW][dR]W[dF]-NH2; not fully specified; printed as His-DTrp-DArg-Trp-DPhe-NH2) | -125 ± 101 ng/mL | -122 ± 44 ng/mL | – | – |
| – | – | – | DesaminoTyr-DTrp-Ser-Trp-DPhe-NH2 ([Desaminotyrosyl][dW]SW[dF]-NH2; SMILES NC(=O)[C@@H](Cc1ccccc1)NC(=O)[C@H](Cc1c[nH]c2ccccc12)NC(=O)[C@H](CO)NC(=O)[C@@H](Cc1c[nH]c2ccccc12)NC(=O)CCc1ccc(O)cc1) | 3119 ± 488 ng/mL | 3258 ± 682 ng/mL | – | – |
| 1765 ± 160 ng/mL | – | 949 ± 178 ng/mL | His-DTrp-DLys-Trp-DPhe-NH2 (H[dW][dK]W[dF]-NH2; N-terminus assumed; SMILES NCCCC[C@@H](NC(=O)[C@@H](Cc1c[nH]c2ccccc12)NC(=O)[C@@H](N)Cc1c[nH]cn1)C(=O)N[C@@H](Cc1c[nH]c2ccccc12)C(=O)N[C@H](Cc1ccccc1)C(N)=O) | – | 91 ± 103 ng/mL | – | – |
| – | – | – | Tyr-DTrp-Lys-Trp-DPhe-NH2 (Y[dW]KW[dF]-NH2; N-terminus assumed; SMILES NCCCC[C@H](NC(=O)[C@@H](Cc1c[nH]c2ccccc12)NC(=O)[C@@H](N)Cc1ccc(O)cc1)C(=O)N[C@@H](Cc1c[nH]c2ccccc12)C(=O)N[C@H](Cc1ccccc1)C(N)=O) | – | – | – | -555 ± 121 ng/mL |
| 952 ± 200 ng/mL | 324 ± 181 ng/mL | 134 ± 91 ng/mL | His-DTrp-DLys-Trp-DPhe-Lys-NH2 (H[dW][dK]W[dF]K-NH2; N-terminus assumed; SMILES NCCCC[C@H](NC(=O)[C@@H](Cc1ccccc1)NC(=O)[C@H](Cc1c[nH]c2ccccc12)NC(=O)[C@@H](CCCCN)NC(=O)[C@@H](Cc1c[nH]c2ccccc12)NC(=O)[C@@H](N)Cc1c[nH]cn1)C(N)=O) | -83 ± 132 ng/mL | -175 ± 59 ng/mL | – | – |
| – | – | – | DeaminoTyr-DTrp-Ser-Trp-DPhe-Lys-NH2 ([Desaminotyrosyl][dW]SW[dF]K-NH2; SMILES NCCCC[C@H](NC(=O)[C@@H](Cc1ccccc1)NC(=O)[C@H](Cc1c[nH]c2ccccc12)NC(=O)[C@H](CO)NC(=O)[C@@H](Cc1c[nH]c2ccccc12)NC(=O)CCc1ccc(O)cc1)C(N)=O) | 3325 ± 391 ng/mL | 3810 ± 621 ng/mL | – | – |

| Substance | Change in stimulated GH release versus preincubation (delta) [1] | Change in stimulated GH release versus preincubation (delta) [2] | Change in stimulated GH release versus preincubation (delta) [3] | Change in stimulated GH release versus preincubation (delta) [4] | Change in stimulated GH release versus preincubation (delta) [5] | Change in stimulated GH release versus preincubation (delta) (peptide antagonist 0.1 μg/ml + stimulator His-DTrp-Ala-Trp-DPhe-Lys-NH2 10 ng/ml) | Change in stimulated GH release versus preincubation (delta) (peptide antagonist 100 μg/ml + stimulator His-DTrp-Ala-Trp-DPhe-Lys-NH2 10 ng/ml) |
| --- | --- | --- | --- | --- | --- | --- | --- |
| Tyr-DTrp-DLys-Trp-DPhe-NH2 (Y[dW][dK]W[dF]-NH2; N-terminus assumed; SMILES NCCCC[C@@H](NC(=O)[C@@H](Cc1c[nH]c2ccccc12)NC(=O)[C@@H](N)Cc1ccc(O)cc1)C(=O)N[C@@H](Cc1c[nH]c2ccccc12)C(=O)N[C@H](Cc1ccccc1)C(N)=O) | – | – | -480 ± 95 ng/mL | – | -363 ± 66 ng/mL | – | – |
| DesaminoTyr-DTrp-DLys-Trp-DPhe-NH2 ([Desaminotyrosyl][dW][dK]W[dF]-NH2; SMILES NCCCC[C@@H](NC(=O)[C@@H](Cc1c[nH]c2ccccc12)NC(=O)CCc1ccc(O)cc1)C(=O)N[C@@H](Cc1c[nH]c2ccccc12)C(=O)N[C@H](Cc1ccccc1)C(N)=O) | 2404 ± 802 ng/mL | 688 ± 327 ng/mL | -466 ± 432 ng/mL | -1068 ± 318 ng/mL | -576 ± 110 ng/mL | 4297 ± 1061 ng/mL | – |
| Tyr-DTrp-DTrp-Phe-Phe-NH2 (Y[dW][dW]FF-NH2; N-terminus assumed; SMILES NC(=O)[C@H](Cc1ccccc1)NC(=O)[C@H](Cc1ccccc1)NC(=O)[C@@H](Cc1c[nH]c2ccccc12)NC(=O)[C@@H](Cc1c[nH]c2ccccc12)NC(=O)[C@@H](N)Cc1ccc(O)cc1) | 1274 ± 329 ng/mL | – | – | 1034 ± 182 ng/mL | -167 ± 157 ng/mL | – | – |
| DesaminoTyr-DTrp-Ala-Trp-DPhe-NH2 ([Desaminotyrosyl][dW]AW[dF]-NH2; SMILES C[C@H](NC(=O)[C@@H](Cc1c[nH]c2ccccc12)NC(=O)CCc1ccc(O)cc1)C(=O)N[C@@H](Cc1c[nH]c2ccccc12)C(=O)N[C@H](Cc1ccccc1)C(N)=O) | – | – | 1302 ± 269 ng/mL | – | -959 ± 75 ng/mL | – | – |
